Source: patent US7449553B2, “Antibody that binds ceramidase” (Takara Bio Inc., priority 1999, dated 2008)
Entries after “also recorded” stand apart in the source; their conditions may differ.

Experiment: Temperature stability of the ceramidase
Format: physicochemical
Settings: 20 mM Tris-HCl pH 7.5, 0.1% polidocanol (Lubrol PX)
Method: The activity of the ceramidase can be determined in accordance with the method described, for instance, in J. Biol. Chem., 275, 3462-3468 (2000). Concretely, a reaction mixture prepared by dissolving 550 pmol of 12-((N-(7-nitrobenz-2-oxa-1,3-diazol-4-yl)amino)dodecanoyl)sphingosine, hereinafter referred to as C12-NBD-ceramide [Anal. Biochem., 263, 183-188 (1998)], 1.0% (W/V) sodium cholate and a suitable amount of an enzyme (ceramidase) in 20 μl of 25 mM Tris-hydrochloric acid buffer (pH 7.5) is incubated at 37° C. for 30 minutes. The reaction mixture is incubated in a boiling water bath for 5 minutes, thereby stopping the reaction. The resulting reaction mixture is further evaporated to dryness under reduced pressure. The dried solid is dissolved in chloroform/methanol=2/1 (V/V), and developed by silica gel thin layer chromatography (developing solvent: chloroform/methanol/25% aqueous ammonia=90/20/0.5 (V/V/V)). Thereafter, the 12-(N-7-nitrobenz-2-oxa-1,3-diazol-4-yl)amino)dodecanoyl acid, hereinafter referred to as C12-NBD-fatty acid generated by the above-mentioned reaction is quantified by using CS-9300 Chromatoscanner (manufactured by Shimadzu Corporation) at an excitation wavelength of 475 nm and a fluorescent wavelength 525 nm. […]

B1: ceramidase: isolated and purified neutral/alkaline ceramidase derived from a mouse liver, mature form SEQ ID NO: 14 (protein, listed as Mus sp.)
chain: FSGYYIGVGRADCTGQVSDINLMGYGKNGQNARGLLTRLFSRAFILADPDGSNRMAFVSVELCMISQRLRLEVLKRLESKYGSLYRRDNVILSAIHTHSGPAGFFQYTLYILASEGFSNRTFQYIVSGIMKSIDIAHTNLKPGKIFINKGNVANVQINRSPSSYLLNPQSERARYSSNTDKEMLVLKLVDLNGEDLGLISWFAIHPVSMNNSNHFVNSDNMGYAAYLFEQEKNKGYLPGQGPFVAGFASSNLGDVSPNILGPHCVNTGESCDNDKSTCPNGGPSMCMASGPGQDMFESTHIIGRIIYQKAKELYASASQEVTGPVLAAHQWVNMTDVSVQLNATHTVKTCKPALGYSFAAGTIDGVSGLNITQGTTEGDPFWDTLRDQLLGKPSEEIVECQKPKPILLHSGELTIPHPWQPDIVDVQIVTVGSLAIAAIPGELTTMSGRRFREAIKKEFALYGMKDMTVVIAGLSNVYTHYITTYEEYQAQRYEAASTIYGPHTLSAYIQLFRDLAKAIATDTVANMSSGPEPPFFKNLIASLIPNIADRAPIGKHFGDVLQPAKPEYRVGEVVEVIFVGANPKNSAENQTHQTFLTVEKYEDSVADWQIMYNDASWETRFYWHKGILGLSNATIYWHIPDTAYPGIYRIRYFGHNRKQELLKPAVILAFEGISSPFEVVTT
Activity after treatment at 37° C. for 24 hours: reduced activity not being observed; also recorded: does not show the reduced activity
Activity after treatment at 60° C. for 1 hour, relative to activity before the treatment: about 30%
